In publication PMC6138693, “Structural determinants of Rab11 activation by the guanine nucleotide exchange factor SH3BP5” (Nature Communications, 2018):

Experiments:
[1] = molecular target: Rab11A K13N (human) (UniProt P62491)
[2] = molecular target: Rab11A S40F (human) (UniProt P62491)
[3] = molecular target: Rab11A K41P (human) (UniProt P62491)
[4] = molecular target: Rab11A L38P (human) (UniProt P62491)
[5] = molecular target: T1, SH3BP5 (31–455), N-terminally truncated (UniProt O60239 31-455); assay: HDX-MS; 1.0 µM Rab11(Q70L) and 1.0 µM SH3BP5 (31–455), incubated on ice with 20 µM EDTA for 1 h; D2O buffer 10 mM HEPES pH 7.5, 500 mM NaCl; 3 s at 1 °C and 3, 30, 300 s at room temperature; settings: both partners purified
T1 construct: also called N-terminally truncated SH3BP5 (31–455); N-terminally truncated variant of SH3BP5; source: E. coli BL21 C41, purified (GSTrap, TEV cleavage, HiTrap Q, SEC); not shown: GST, N-terminal, cleaved
T1 sequence (looked up): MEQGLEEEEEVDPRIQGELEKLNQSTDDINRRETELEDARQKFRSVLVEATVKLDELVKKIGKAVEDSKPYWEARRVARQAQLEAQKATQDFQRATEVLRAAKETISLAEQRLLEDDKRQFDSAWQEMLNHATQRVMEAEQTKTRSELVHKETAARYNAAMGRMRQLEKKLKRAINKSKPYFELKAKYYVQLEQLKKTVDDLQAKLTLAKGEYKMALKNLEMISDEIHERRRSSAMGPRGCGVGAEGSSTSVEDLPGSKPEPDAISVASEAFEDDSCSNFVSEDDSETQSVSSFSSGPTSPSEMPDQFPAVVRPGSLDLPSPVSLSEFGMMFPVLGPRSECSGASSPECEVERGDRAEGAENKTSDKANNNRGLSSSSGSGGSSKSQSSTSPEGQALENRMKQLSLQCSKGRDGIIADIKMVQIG

[6] = molecular target: T2, SH3BP5 (1–265), crystal construct (N-terminal GEF domain of SH3BP5) (UniProt O60239 1-265); assay: SEC; SH3BP5 truncation and Rab11(Q70L) mixed at an equimolar amount, 5 min at 4 °C, 20 mM EDTA (pH 7.5) for 1 h at 4 °C, loaded onto Superdex 200 10/300; settings: both partners purified
T2 construct: A SeMet form made in E. coli B834 was used for phasing; source: E. coli BL21 C41, purified (GSTrap, TEV cleavage, HiTrap Q, SEC); not shown: GST, N-terminal, cleaved
T2 sequence (looked up): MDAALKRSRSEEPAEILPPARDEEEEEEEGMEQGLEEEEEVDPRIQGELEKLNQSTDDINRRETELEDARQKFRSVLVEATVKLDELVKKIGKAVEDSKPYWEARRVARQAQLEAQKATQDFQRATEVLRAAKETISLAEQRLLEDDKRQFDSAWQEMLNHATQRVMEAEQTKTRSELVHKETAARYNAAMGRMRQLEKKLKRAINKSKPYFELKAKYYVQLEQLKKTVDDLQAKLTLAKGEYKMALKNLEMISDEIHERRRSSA

[7] = molecular target: T1, SH3BP5 (31–455), N-terminally truncated; assay: HDX-MS; 0.4 µM C-terminally His-tagged Rab11A (1–211) and 0.4 µM SH3BP5 (31–455), with or without 0.2 mg/mL nickelated lipid vesicles; D2O buffer 10 mM HEPES pH 7.5, 200 mM NaCl; 3, 30, 300, 3000 s at room temperature; settings: both partners purified

Sequence of Rab11A K13N (human) (P62491 whole entry K13N): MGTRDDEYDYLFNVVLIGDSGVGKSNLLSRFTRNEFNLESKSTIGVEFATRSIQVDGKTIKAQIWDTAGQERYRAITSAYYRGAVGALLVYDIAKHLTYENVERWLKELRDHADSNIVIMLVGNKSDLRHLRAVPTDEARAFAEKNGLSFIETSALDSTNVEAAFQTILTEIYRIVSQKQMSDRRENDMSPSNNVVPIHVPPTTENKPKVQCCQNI

B1: SH3BP5 (1–455), full-length (natural protein)
chain: MDAALKRSRSEEPAEILPPARDEEEEEEEGMEQGLEEEEEVDPRIQGELEKLNQSTDDINRRETELEDARQKFRSVLVEATVKLDELVKKIGKAVEDSKPYWEARRVARQAQLEAQKATQDFQRATEVLRAAKETISLAEQRLLEDDKRQFDSAWQEMLNHATQRVMEAEQTKTRSELVHKETAARYNAAMGRMRQLEKKLKRAINKSKPYFELKAKYYVQLEQLKKTVDDLQAKLTLAKGEYKMALKNLEMISDEIHERRRSSAMGPRGCGVGAEGSSTSVEDLPGSKPEPDAISVASEAFEDDSCSNFVSEDDSETQSVSSFSSGPTSPSEMPDQFPAVVRPGSLDLPSPVSLSEFGMMFPVLGPRSECSGASSPECEVERGDRAEGAENKTSDKANNNRGLSSSSGSGGSSKSQSSTSPEGQALENRMKQLSLQCSKGRDGIIADIKMVQIG
SH3BP5-mediated GEF activity (Mant-GDP release, kcat/Km), mutant compared with WT Rab11A (fold decrease) [1]: > 100 | SH3BP5-mediated GEF activity (Mant-GDP release, kcat/Km), mutant compared with WT Rab11A (fold decrease) [2]: > 100 | SH3BP5-mediated GEF activity (Mant-GDP release, kcat/Km), mutant compared with WT Rab11A (fold decrease) [3]: > 100 | SH3BP5-mediated GEF activity (Mant-GDP release, kcat/Km), mutant compared with WT Rab11A (fold decrease) [4]: > 100

B2: Rab11A Q70L (1–213) (natural protein, human, UniProt P62491 1-213, looked up)
chain: MGTRDDEYDYLFKVVLIGDSGVGKSNLLSRFTRNEFNLESKSTIGVEFATRSIQVDGKTIKAQIWDTAGLERYRAITSAYYRGAVGALLVYDIAKHLTYENVERWLKELRDHADSNIVIMLVGNKSDLRHLRAVPTDEARAFAEKNGLSFIETSALDSTNVEAAFQTILTEIYRIVSQKQMSDRRENDMSPSNNVVPIHVPPTTENKPKVQCC
notes: called full-length in the results; dominant active switch II mutant Q70L; Nucleotide removed with EDTA before complex formation; The limits 1-213 are printed for the crystal only; A SeMet form was used for phasing; also called Rab11(Q70L); full-length Q70L Rab11A; source: E. coli BL21 C41, purified (GSTrap, TEV cleavage, HiTrap Q, SEC); not shown: GST, N-terminal, cleaved
binding result [5]: binds | binding result [6]: binds

B3: WT Rab11A (1–211, C-term his) (natural protein, human, UniProt P62491 1-211, looked up)
chain: MGTRDDEYDYLFKVVLIGDSGVGKSNLLSRFTRNEFNLESKSTIGVEFATRSIQVDGKTIKAQIWDTAGQERYRAITSAYYRGAVGALLVYDIAKHLTYENVERWLKELRDHADSNIVIMLVGNKSDLRHLRAVPTDEARAFAEKNGLSFIETSALDSTNVEAAFQTILTEIYRIVSQKQMSDRRENDMSPSNNVVPIHVPPTTENKPKVQ
notes: Rab11A, residues 1-211, wild type; The limits 1-211 are printed for the HDX-MS experiment; In GEF assays it was loaded with Mant-GDP; also called Rab11A-His6; Rab11a-His6; source: E. coli BL21 C41, purified (GSTrap, TEV cleavage, HiTrap Q, SEC); not shown: GST, N-terminal, cleaved; His6, C-terminal, kept
binding result [7]: binds
